This series is described as follows: label from the status in PepcDB records.
Consider “MSGSNSSNHLHEREGTSEESREQSHKHSGLFNPRLFLHSLSHKFSHTPFHKHSHVHPHEHSHGHSHTHGRVDPSIIATQKGLWAVKWSFIGLMVTAVLQIFIVIMSGSVALLADTIHNFGDASTAIPLAIAFTLARRKPSKRFSYGYGRVEDLAGVIIVFLILFSAAVAGYESVTRFLNPRPVEHLQAVALAAIIGCIGNEVVAQFRMKVGKEIGSAALIADGYHARMDGFTSLAVLVGAVGVWLGYPILDPLIGMLITIAILKIVLDSSKLVFTRLLDGVEPEVLDQVKAIAEGVEGVCEVTDLRVRWIGHRLHAEINASVDPSLSVEEGHEIANAVREKLLENFSYLSGTTIHVDPVTASGECCHCGSESPDKRLGRQKRVLNVYPG”, for which the protein production result is reported as “failed”.
Under “MRKRYVMTEQVQSGPRLDWLLDGLVDRIPEIRCAIVLSGDGLLIGKSKNLRRDDAEHLSAVGSGMHSLARGAARHFHGGEVQQTVIQMDRAFLFVTAAGRGARLAAIASEQVDVGMMAFEMGTLVKQVGQYLSAAPRVETPSAGHIQDA” stands “failed”.
Turning to “MLSFVVMSFLIFVIVMVNEHKAHLSVIQKMILAVVNGSITIILSIIVFYIFYPQNISLFLITAGILTVFVFLYGLLLFLFGFTHRELSYLSKYDKYKFLCKFTIEMFSSLTNHAFLTISAIVLYQIQHPKPTIDFIVMIGMITISVIVVMLLFLKTYSIIIKQLKKLENN”, the protein production entry is listed as “failed”.
As to “MRYLSKDILEEVITQRPSDSYKSNFGRVVLIGGNRQYGGAIIMSTEACINSGAGLTTVITDVKNHGPLHARCPEAMVVGFEETVLLTNVVEQADVILIGPGLGLDATAQQILKMVLAQHQKQQWLIIDGSAITLFSQGNFSLTYPEKVVFTPHQMEWQRLSHLPIEQQTLANNQRQQAKLGSTIVLKSHRTTIFHAGEPFQNTGGNPGMATGGTGDTLAGIIAGFLAQFKPTIETIAGAVYLHSLIGDDLAKTDYVVLPTKISQALPTYMKKYAQPHTAPDSELLEQKRSR”, the protein production entry is “not failed”.
Under “MQTVGSFSEFLDDMVGRYGPRPAIQYRPRYRTLRWSYLELGTHAAKLASLLDEHGVGSGDRVFLSAENSPHWVAAFFAIAARGAVIVPLNPRSPPEQLANLVRSAGPSLVLASPRRRWEGPPLPVVDIERSGRVPSNRPATRTGPARLAEIIYTSGTTGDPKGVMLTHANLLSDLSAVARAIPLAPDDHVLSLVPLFHVYGQMTSLFCPLAAGCPVSYLTTPTTRSVLEALTHTPVTHLVAVPEVLKTMMDRLESRIGRIPGFLWPLLRGRIRARISGSLRTIVCGGAPLDPVVEEKWWALGFQVLQGYGLTETSPVIAANTPQAHRIGSVGKPLDEVELRIASDGEILVKGPMVMAGYFRDPARTEAAFADGWLKTGDAGRLDADGFLYVYGRKRYMILGPGGENVFPEDIEAVLNRTAGVTDCAVVGLESGGRTLVHAVLLADADEARAAAIVAEANRHLAPHQRIVSWSLWPEPDFPRSVTRKVKKDEVLGRLRREPSTQAVPVGRSTPLRLLLAQVAGTEAGALSDDTRLVPDLGLDSLLRIELVARIEEDLGVCLDEIDIGPLTTVADLENLLVRRQDRMPRVDAHPRWSLSPWASRLRPLAQKVFLQWWIAPFCRLRVSGLEHLAALDGPVIFMANHRSYLDSAVASFALPDRFRYRLAIAAATGVLYTRYRWAVPIGELSLNAFPLPSGPDENIRPGLELIGRLLDDGWNVLIFPEGQMNRGGLGIQPLRRGAGTIGVDMGVPVVPLVIEGTEKVMPPGRIVPRAAAPVSVRFGAPLRAGEAEPHGRMLARIEDALRRLLENSPLEHHHHHH” stands “failed”; under “KSEAGAGKKVQVEFVSANPTGPLHIGHGRGAAIGDTICRLLAAIGWDVTREFYYNDAGQQIANLALSVQARCLGVEPGGPLWPTDGYQGEYIKDVARSYLNRETVDAGDQHVTAAGDPHDVEAIRRFAVAYLRREQDQDLRAFDVGFDVYFLESSLYAEGRVDDVVQRIIAKGHAYEQDGALWLRTTEFGDDKDRVMRKSDGSYTYFVPDVAYHLNKWERGFIRVVNEQGADHHSTITRVRAGLQALDAGIPKGWPEYVLHQMVTVMRGGEEVKISKRAGSYVTLRDLVDEVGRDATRFFFLMRKPDSQLVFDIDLAKQQTLENPVYYVQYAHARICSIFENAADKGVVPPT”, “failed”.
As to “MVADAAAAGSGGVGVCARWPRASAEGARMKLTPRVHDWYVGRVVLSTVLLTWAVLLGLDLVNAFASEAKDIGQGSYTFGHAVAYVAYTVPRRAYTLFPTAAVIGALMGLGQLAATSELTALRALGVSRKRMSASVVAAMALLTASMVISGETIGPWAQNQADTLKASARYNSDMAASLYAGLWAREGDTFLNALSGEEKLLDGGDTALDLHDVRLYHLDSSGRMQQLTYASVAEHRDGRWTLRQVRRDTFQERSVQRETFPELPWQSQLNPAALAAGLAKPRNLSAHDLEQSIEYRSRNGLDARDYEDQYWSRWFYPLNVLALCMAAIPFSFGSLRSGGLGKRLFLGILFALGFWLLQLFFGRMAGALKLDYRIAYALPPMVMLGVSAWLFRRRSS”, the protein production result was “failed”.
On to “MGHHHHHHSHMKKDPTLQQAHDTMRFFRRGGSLRMLLDDDVTQPLNTVYRYAMQLMEVKEFAGAARLFQLLTIYDAWSFDYWFRLGECCQAQKHWGEAIYAYGRAAQIKIDAPQAPWAAAECYLACDNVCYAIKALKAVVRICGEVSEHQILRLRAEKMLQQLSDRS”, for which the protein production entry is on record as “failed”.
Under “MKLVVVSAGLSVPSSTRLLADRLAKATAARVPAEVEVVELRDLAVEIAHNFTNGFPGRALAAAIGAVTEADGLIVVTPVFSASYSGLFKSFFDVLEQGVLAGKPVLIAATGGSARHSLVLEHALRPLFAHLRAVVVPTGVYAASEDWGAEGLAERIERAAGELAGLMTGLMSGVSAVGPARDAQPRAGAEVSADGPAAAPAEGSVPRPRETVAQSATAGRGSRTDGFQVVPFEQQLAALRTR” stands “failed”.
“MIMTVLRQQPRAAGLVLGLIAANFLAWCWALQAFGDSGALMAASLLAWGYGLRHAVDADHIAAIDNVTRKMMQQGRRPFAVGAWFSLGHSSIVVLASAAIAATATAFSTQMSWLHDTGSVIGTAVSALFLLAMAFINLVILRSVWRSFRAWKRGEPVSDEIVSGGGVMSWLFGKTFRLISRSWQMYLVGFLFGLGFDTATEIGVLGISAAGASSGISVWSIMVFPALFASGMALVDTLDNVLMVGAYGWAFSKPQRKLYYNMTITGTSVVVALFIGGLEALGLLMDKFALSGGIWRWVGALNDNLGDAGFVVVGLFVACWALSVLNYRWRGYDNLAR”: the protein production result is listed as “failed”.
With “MKVQATFATLIALAAYFPAANAWKDCIIQRYKDGDVNNIYTANRNEEITIEEYKVFVNEACHPYPVILPDRSVLSGDFTSAYADDDESC” the entry was “not failed”; with “MSEAKWLSLLGLAARARQLLTGEEQVVKAVQNGQVTLVILSSDAGIHTKKKLLDKCGSYQIPVKVVGNRQMLGRAIGKHERVVIGVKDAGFSRKLAALIDE”, “not failed”; with “MEYELLIREAEPKDAAELVAFLNRVSLETDFTSLDGDGILLTSEEMEIFLNKQASSDNQITLLAFLNGKIAGIVNITADQRKRVRHIGDLFIVIGKRYWNNGLGSLLLEEAIEWAQASGILRRLQLTVQTRNQAAVHLYQKHGFVIEGSQERGAYIEEGKFIDVYLMGKLIG”, “not failed”.
Under “MTWCSLSVISCTRFYSRQRTAMLNSLKQEKFLLLALLAAVAAYPLEHLLLGSGQGIALGAGLVLIGFIVMASMRVAHHAELLAEKVGDPYGTMILTLAAVLVEVVILAIMMSNEASPTLVRDTIYSAVMLDINGILGLAALMGGIKHGEQPYNDDSARTYSVMILTAMGVSMVVPEFIPEADWKVYSAFTIGAMVVLYTLFLRMQVGPHSYFFSYSYPEKRRNKEAQEQPHAINLAWSIGILVFGVVVIGALAEVMSKTLDLGLEGTGAPPVITAILVAAISAAPEILTALRAALANRMQSVVNVALGASLSTVILTVPVMEAMALYTGQPFQMAMTPVQTVMVFITLIVSAINLNDGETNAIEGMTHFVLFATFIMLSLLGL” stands “failed”.
As to “MSKVNQQDIDKLIELVGGRGNIATVSHCITRLRFVLNDPAIARPKEIEQLRMVKGCFTNAGQFQVVIGTEVGDYYKALLATTGQTSADKEQVKQAARQNM”, the protein production entry is “failed”.
Under “MAAKPGIPKGTRDFSPVEMAKRNYIFNTIRDVFHLFGYQQIETPSMENLSTLMGKYGDEGDKLLFKIQNSGDYFNGITDEELLSRNAVKLASKFCEKGLRYDLTVPFARYVVMHRDEISFPFKRYQIQPVWRADRPQKGRYREFYQCDADVVGSNSLLNEVELVQMIDRVFGKFGVRVSIKINNRKILTGIAEIIGEADKIVDITVAIDKLDKIGLENVNAELASKGIPQEAIDKLQPIILLSGSNEEKLETLKTVLATSEAGLKGVEESEFILKTVSALGVKSEVELDLTLARGLNYYTGAIFEVKALDVQIGSISGGGRYDNLTGVFGMDGMSGVGISFGADRIFDVLNQLDLYPKE” stands “not failed”.
Under “MGFIVFCLIAYFVISHLSNKKDVSGNKANSNCPYCNAAFYLTENGDFNCSNCGRLFKYRDGIVYRQDERLPIVVELACTLFTILCKADGVVTKDEVSITKELLEKNFGLEDKDMKMAIDILNKSKSKPYTKTIINDLNNIFNNYDFSKTDAEDYKELILRCAMIIAFCDDGEPSNNQNKILDDIVSIFNISATKYTNLLNYFRDNCIEKNKNDYYEILGVSEGASKEEIRAAFRKLSKLYHPDRYSSKDLPPEIIKEFEEKLAKIIEAYEALK” stands “failed”; under “MSSARFDSSDRSAWYMGPVSRQEAQTRLQGQRHGMFLVRDSSTCPGDYVLSVSENSRVSHYIINSLPNRRFKIGDQEFDHLPALLEFYKIHYLDTTTLIEPAPRYPSPPMGSVSAPNLPTAEDNLEYVRTLYDFPGNDAEDLPFKKGEILVIIEKPEEQWWSARNKDGRVGMIPVPYVEKLVRSSPHGKHGNRNSNSYGIPEPAHAYAQPQTTTPLPAVSGSPGAAITPLPSTQNGPVFAKAIQKRVPCAYDKTALALEVGDIVKVTRMNINGQWEGEVNGRKGLFPFTHVKIFDPQNPDENE”, “not failed”; under “MTENGRYEYIVIGSEAAGVGLVRELTAAGKKVLAVDKSKEKIELLEDEGFDAVIADPTDESFYRSLDLEGVSAVLITGSDDEFNLKILKALRSVSDVYAIVRVSSPKKKEEFEEAGANLVVLVADAVKQAFMDKIKKMETLKKIEKLKRIMESLRGKRLGIFTHDNPDPDSMSSAYALREIAKQFDVIADILYYGEILHQKNRAMVNLLEIPMIRAPEVDLSHYDAFAIVDSSGPGVNNSIPPDIDISIVIDHHPAEKVVAEFVDLREDVGATATILTEYIKELKITPSKILATALFFGIKSETDEFKRNTRTADFLACAFLYPFVDQDLIEKIESPSISTETLDILGTAIKNRQVYSSFLISFAGFINDRDALPQAADFLLKLEGISTVVVFGVIKDTVYVSARNKDVRIHMGEVLRRAFGDVGSAGGHAHAAGAQIPLGIFGETNEKDLLAKLITEAITKRLLSAVGMEQS”, “failed”.
As to “ECTIKNNIENILRNSYINVGYEEVRSPTLEFYDVYNLENQPISQEKMYKLFDNTGRILVLRPDMTTPIARICATKLKNRVYPLKLSYTGNIYRMNKALNGKISEITQSGIEILGFSSLKADAEVIITAIKAILKTGLKNFKIEIGQVEFFKSIISDTALKEQDTEKLRNFIENKNFSKVEEFILRNSDLIGETSSKVLMNLPNLFGGKEVIEKAEQLTSNKQAIEALKKVRDLYDIVKRAGFGEYILIDLGMVQHINYYTGLIFRGYAHGIGDDLLSGGRYDKLLGQFGYDIPATGLAINVDNLVA”, the protein production entry is “failed”.
With “MDYNQTVLSHLQKFWKHHDIKGFTWTLGRIVEELPDFQVFQVIPNHEDEPWVYVSSGIGQFLGQEFFIISPFETPEHIETLAMLASASMHYPDQFQLGKTVNIGRPWVEQSSFRHFLISLPYPYGQELEYMDNVRFFWLLPITQTERLFLNTHSVEELETKFDEAGIDYLDINRASTVWQAG”, the protein production result is “not failed”.
Under “SIKENSYFAGGVKSLGFNQHGQDVSVGVMLPGEYTFGTQAPERMTVVKGALVVKRVGEADWTTYSSGESFDVEGNSSFELQVKDATAYLCEYL” stands “not failed”.

The values above are taken from a protein production outcome set (Wang et al. 2014).
